Assay results: publication doi:10.1101/2025.08.11.669711 (2025)
Residue numbers refer to the chain shown, from its start.

Columns and labels:
UCH37 = target: T1, UCH37; assay: SPR
T1 chain: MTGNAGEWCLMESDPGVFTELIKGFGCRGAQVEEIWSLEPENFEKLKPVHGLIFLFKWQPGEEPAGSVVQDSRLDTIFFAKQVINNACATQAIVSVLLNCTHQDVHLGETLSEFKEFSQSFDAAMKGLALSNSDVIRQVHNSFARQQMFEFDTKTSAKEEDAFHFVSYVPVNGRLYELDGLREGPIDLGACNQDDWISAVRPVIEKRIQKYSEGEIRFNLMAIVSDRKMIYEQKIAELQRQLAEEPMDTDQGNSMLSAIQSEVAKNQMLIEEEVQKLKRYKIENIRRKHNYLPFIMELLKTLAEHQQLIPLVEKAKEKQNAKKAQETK

UCH37•RPN13^DEUBAD = target: T2, UCH37•RPN13^DEUBAD (UniProt Q16186 253-407); assay: MST
T2 chain 1: T1 chain
T2 chain 2: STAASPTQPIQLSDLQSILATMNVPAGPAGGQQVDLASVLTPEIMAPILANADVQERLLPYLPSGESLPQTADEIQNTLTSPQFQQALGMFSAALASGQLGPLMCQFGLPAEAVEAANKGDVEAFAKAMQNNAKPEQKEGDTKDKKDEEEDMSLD

B1: Nb-ncS1 (His-tagged) (VHH)
VHH: RVQLQESGGGLVQAGGSLRLSCAASGYIFRSYRMGWYRQAPGKERELVAAIGLGGNTYYADSVKGRFTISRDNAKNTVYQQMNSLKPEDTAVYYCAALYGKPPAFSPFPYWGQGTQVTVSS
koff (UCH37): 3.9e-05 s⁻¹

B2: Nb-v1 (recombinant) (VHH)
VHH: B1 VHH with R1Q, Q80L, Y99H, P109A
koff (UCH37): 0.00013 s⁻¹

B3: Nb-cS1 (His-tagged) (VHH)
VHH: QVQLQESGGGLVQAGGSLRLSCAASGYISRPRTMGWYRQAPGKEREFVAIISNGAITNYADSVKGRFTISRDNAKNTVYLQMNSLKPEDTAVYYCAAGRNIWHAYWGQGTQVTVSS
Kd (UCH37•RPN13^DEUBAD): 199 nM
